{
  "source": "patent US20070003557A1",
  "about": "“Method for treating cancer using premedication” (priority 2005, published 2007)",
  "format_in_all_cases": "in vivo, human",
  "key": {"[1]": {"assay": "Infusion reactions caused by KM-871 in patients, premedication with Sigulair, Zertec, Benadryl and Zantac (Example 3)", "settings": "per patient, KM-871 40 mg/m^2 every two weeks, Sigulair 10 mg, Zertec 10 mg orally and Benadryl 50 mg, Zantac 50 mg parenterally 30 min before, at the administrations named in column Pre-medication", "procedure": "(§1) The following test was performed by using various compounds to suppress the infusion reactions caused by KM-871.\n(§2) KM-871 was administered to each patient with a dose of 40 mg/m^2 once every two weeks for four times as a general rule. Sigulair (10 mg) and Zertec (10 mg) were orally administered and Benadryl (50 mg) and Zantac (50 mg) were parenterally administered to the patient 30 minutes prior to each administration of KM-871 except for the first administration.\n(§3) As a test dose, KM-871 (10 mg/m^2), was administered to the patient two weeks prior to the first administration of KM-871 to confirm its safeness."}, "[2]": {"assay": "Infusion reactions caused by KM-871 in patients, premedication with Benadryl and Zantac (Example 1)", "settings": "per patient; for Infusion reaction, 1st administration / Infusion reaction, 2nd administration / Infusion reaction, 3rd administration: KM-871 40 mg/m^2 every two weeks, Benadryl 50 mg and Zantac 50 mg parenterally 30 min before, at the administrations named in column Pre-medication; for Infusion reaction, Test: KM-871 test dose 10 mg/m^2 two weeks prior to 1st administration", "procedure": "The following test was performed to suppress the infusion reactions caused by human anti-GD3 chimeric antibody.\nA human chimeric antibody which specifically binds to ganglioside GD3, wherein the human chimeric antibody comprises the H chain V region of the antibody comprising the amino acid sequence represented by SEQ ID NO:3 and the L chain V region of the antibody comprising the amino acid sequence represented by SEQ ID NO:4 was produced according to U.S. Pat. No. 6,437,098 (hereinafter referred to as ‘KM-871’).\nKM-871 was administered to each patient with a dose of 40 mg/m^2 once every two weeks for four times as a general rule. Benadryl (50 mg) and Zantac (50 mg) were parenterally administered to the patient 30 minutes prior to each administration of KM-871 except for the first administration.\nas §3"}, "[3]": {"assay": "Infusion reactions caused by KM-871 in one patient, premedication before second and third administration (Example 5)", "procedure": "On the day of the second administration of KM-871, Benadryl (100 mg), Zantac (50 mg), Singulair (10 mg), Zyrtec (10 mg) and Dexametazone (10 mg) were administered to the patient followed by the administration of KM-871.\nPrior to the third administration of KM-871, Benadryl (100 mg), Zantac (50 mg), Singulair (10 mg), and Zyrtec (10 mg), were administered to the patient."}, "[4]": {"assay": "Infusion reactions caused by KM-871 in patients, premedication with Sigulair, Zertec, Benadryl, Zantac and Dexametazone (Example 4)", "settings": "one patient", "procedure": "as §1\nas §2, with “or 80 mg/m^2” for “once”, “(50 mg), Zantac (50” for “(50”, “Dexametazone (20” for “Zantac (50”\nAs a test dose, KM-871 (10 mg/m^2), was administered to the patient two weeks prior to the first administration of KM-871 to confirm its safeness. When toxicity or infusion reactions are observed to the patient by the administration, the administration was withdrawn."}, "[5]": {"assay": "Infusion reactions caused by KM-871 in patients, premedication with Sigulair and Zertec (Example 2)", "settings": "per patient", "procedure": "as §1\nKM-871 was administered to each patient with a dose of 40 mg/m^2 once every two weeks for four times as a general rule. Sigulair (10 mg) and Zertec (10 mg) were orally administered to the patient 30 minutes prior to each administration of KM-871 except for the first administration.\nas §3"}, "[6]": {"settings": "premedication at 1st administration"}, "[7]": {"settings": "premedication at 1st and 2nd administration"}, "[8]": {"settings": "premedication at 2nd administration"}, "[9]": {"settings": "KM-871 test dose 10 mg/m^2 two weeks prior to 1st administration"}, "[10]": {"settings": "KM-871 40 mg/m^2 every two weeks, Sigulair 10 mg and Zertec 10 mg orally 30 min before, at the administrations named in column Pre-medication"}},
  "note": "“Also recorded” adds a separate entry of the source.",
  "data": [
    {"molecule": "KM-871: human chimeric antibody binding ganglioside GD3; H chain V region SEQ ID NO:3, L chain V region SEQ ID NO:4; produced per U.S. Pat. No. 6,437,098 (antibody, V domains shown, Artificial Sequence H chain V region of the antibody; Artificial Sequence L chain V region of the antibody) VH: EVQLVESGGDFVQPGGSLRVSCAASGFAFSHYAMSWVRQAPGKGLEWVAYISSGGSGTYYSDSVKGRFTISRDNSKNTLYLQMRSLRAEDSAVYFCTRVKLGTYYFDSWGQGTLLTVSS VL: DIQMTQSPSSLSASVGDRVTITCSASQDISNYLNWYQQKPDKAPKLLIFYSSNLHSGVPSRFSGGGSGTDYTLTISSLQPEDIATYFCHQYSKLPWTFGQGTKVEIKR", "values": [
      {"measurement": "Infusion reaction, 2nd administration", "setting": "[1]", "value": "ITCHING"},
      {"measurement": "Infusion reaction, 1st administration", "setting": "[1]; premedication at 1st, 2nd and 3rd administrations", "value": "HIVES; also recorded: ITCHING"},
      {"measurement": "Infusion reaction, 1st administration", "setting": "[1]; premedication at 2nd and 4th administrations", "value": "FEVER; also recorded: HIVES/ITCHING"},
      {"measurement": "Infusion reaction, 1st administration", "setting": "[1]; premedication at 2nd, 3rd and 4th administrations", "value": "FEVER"},
      {"measurement": "Infusion reaction, 1st administration", "setting": "[2]; [6]", "value": "ARMS, LEGS, ERYTHEMA; also recorded: FEVER; also recorded: RIGORS"},
      {"measurement": "Infusion reaction, 2nd administration", "setting": "[2]; [6]", "value": "CHILLS; also recorded: FEVER"},
      {"measurement": "Infusion reaction, 3rd administration", "setting": "[2]; [6]", "value": "HIVES"},
      {"measurement": "Infusion reaction, 1st administration", "setting": "[2]; [7]", "value": "FULLNESS IN THROAT"},
      {"measurement": "Infusion reaction, 2nd administration", "setting": "[2]; [7]", "value": "HIVES"},
      {"measurement": "Infusion reaction, 1st administration", "setting": "[2]; [8]", "value": "ITCHING; also recorded: RIGORS"},
      {"measurement": "Infusion reaction, 3rd administration", "setting": "[2]; [8]", "value": "CHILLS"},
      {"measurement": "Infusion reaction, Test", "setting": "[2]; [6]", "value": "FEVER; also recorded: HIVES"},
      {"measurement": "Infusion reaction, Test", "setting": "[2]; [7]", "value": "ITCHING"},
      {"measurement": "Infusion reactions at the first administration", "setting": "[3]; 4 mg/m^2 of KM-871, no premedication stated", "value": "Rash, Urticaria, Itching"},
      {"measurement": "Infusion reactions after the third administration", "setting": "[3]; premedication Benadryl 100 mg, Zantac 50 mg, Singulair 10 mg and Zyrtec 10 mg before KM-871", "value": "infusion reactions did not appear"},
      {"measurement": "Infusion reactions after the second administration", "setting": "[3]; premedication Benadryl 100 mg, Zantac 50 mg, Singulair 10 mg, Zyrtec 10 mg and Dexametazone 10 mg the same day before KM-871", "value": "infusion reactions did not appear"},
      {"measurement": "Infusion reaction, 1st administration", "setting": "[4]; KM-871 40 mg/m^2 or 80 mg/m^2 every two weeks, premedication (Sigulair, Zertec, Benadryl, Zantac, Dexametazone) at 2nd administration", "value": "HIVES"},
      {"measurement": "Infusion reaction, Test", "setting": "[4]; [9]", "value": "RASH"},
      {"measurement": "Infusion reaction, 1st administration", "setting": "[5]; [10]", "value": "CHILLS; also recorded: THROAT SWELLING; also recorded: ITCHING/HIVES"},
      {"measurement": "Infusion reaction, 2nd administration", "setting": "[5]; [10]", "value": "HIVES"},
      {"measurement": "Infusion reaction, 3rd administration", "setting": "[5]; [10]", "value": "HIVES ON HANDS"},
      {"measurement": "Infusion reaction, Test", "setting": "[5]; [9]", "value": "FACIAL FLUSHING; also recorded: HIVES/ITCHING"}
    ]}
  ]
}
